Assay results as given in FireProtDB (doi:10.1021/bi0525223).

Details: Lithobates pipiens, pH 5.5, sodium acetate 100 mM, reversible: Yes, whole UniProt chain shown

B1: Protein P-30 wild type, P22069 (protein)
chain: QDWLTFQKKHITNTRDVDCDNIMSTNLFHCKDKNTFIYSRPEPVKAICKGIIASKNVLTTSEFYLSDCNVTSRPCKYKLKKSTNKFCVTCENQAPVHFVGVGSC
denaturant midpoint (higher = more stable) (20 °C, GdnHCl, Fluorescence): 4.4 M
Tm (Thermal, DSC): 88.5 °C
